Laboratory results taken from the Human Domainome abundance scans (Beltran et al. 2025).

B1: POU domain, class 2, transcription factor 2, residues 200 to 269; numbered along this chain, P09086 (parent)
chain: LEELEQFARTFKQRRIKLGFTQGDVGLAMGKLYGNDFSQTTISRFEALNLSFKNMCKLKPLLEKWLNDAE
B2: Max-interacting protein 1, residues 70 to 120; numbered along this chain, P50539 (parent)
chain: STHNELEKNRRAHLRLCLERLKVLIPLGPDCTRHTTLGLLNKAKAHIKKLE

Variants of: B1
Experiment: abundance fitness (aPCA) (normalised: wild type 0, dead -1); higher = more abundant; growth selection in yeast, the domain comes from the species named
Settings: Homo sapiens

Abundance fitness: each site, then its substitutions
E5: L -0.093, N -0.224, D -0.051, I -0.293, C -0.07, A 0.005, V -0.052, Q -0.057, W -0.073, H 0.074, Y -0.161, R 0, P -0.5, F -0.214, G -0.034, M 0.048
A8: D -0.883, S -0.113, F -0.708, W -0.452, Q -0.63, V -0.057, E -0.846, T -0.065, L -0.371, C 0.034, Y -0.955, G -0.28, K -0.856, P -0.506, I -0.082, H -0.604
E3: P -0.76, L -0.137, I -0.078, A -0.123, T -0.159, Q -0.003, N -0.107, D -0.087, C -0.187, W -0.263, V -0.085, G -0.154, R -0.162, M -0.443, K -0.189, Y -0.127, F -0.208
R9: Q -0.143, K -0.011
R15: V -0.806, E -0.897, N -0.799, W -0.913, P -1.16, Y -0.243, L -0.806, H -1.13, C -0.698, G -1.01, T -1.01, A -0.977, Q -1.04, I -0.85, K -1.08, S -1, F -0.99
L4: D -0.64, Q -0.233, Y -0.408, K -0.797, S -0.253, R -0.485, H 0.052, P -0.367, V -0.08, G -0.655, W -0.201, M -0.032, F -0.055, T -0.11, E -0.523, A -0.181, N -0.763, I 0.012, C -0.784
L1: N 0.008, T 0.016, I -0.11, W -0.051, M -0.081, C -0.496, G 0.01, F -0.028, V -0.061, S -0.027, D -0.279, R -0.169
I16: A -0.085, C -0.149
Q13: D -0.04, H -0.085, L -0.033, W -0.172, G -0.038, N -0.07, S -0.006, F -0.032, C -0.115, P -0.293, V -0.023, M -0.023, E 0.06, Y -0.169, R -0.054, K -0.041, T 0.001
R14: D -0.327, H -0.118, I -0.261, Q -0.084, G -0.021, Y -0.149, T 0.023, V -0.128, W -0.271, P -1.23, N 0.03, M -0.061, K 0.024, E -0.138, A -0.064
F7: I -0.397, Y -0.192, L -0.286, Q -0.676, R -0.96, N -0.48, E -0.357, V -0.237, P -1.13, W -0.1, H -0.416, D -0.595, K -0.783, T -0.281, C -0.114, M -0.226
T10: H -0.013, P -1, M -0.011, W -0.142, E 0.012, S -0.016, Q 0.015, A -0.035, I -0.052, R -0.022, F 0.003, D 0.022, C -0.084, N 0.012, K -0.024, Y -0.025, V -0.04
Q6: R -0.019, L -0.066, S 0.001, K 0.079, P -0.151, M 0.027, T 0.003, V -0.05, D 0.001, W -0.086, I -0.028, F -0.086, G -0.048, Y -0.056, E -0.045, A -0.095, N -0.141, H -0.236
F11: V -0.239, Y -0.627, P -1.03, G -0.789, K -0.961, I -0.254, N -1.1, D -0.565, T -0.495, C -0.143, S -0.242, E -0.977, Q -1.01, L -0.177, A -0.151, M -0.167, W -0.209, R -1.01
K12: E -0.147, H -0.127, I 0.02, L -0.232, S -0.022, R -0.142, W -0.337, A -0.254, N -0.583
E2: R -0.066, T -0.274, W 0.039, C -0.699, D 0.054, Q -0.171, Y -0.106, P -0.689, V -0.062, M 0.173, G -0.046, H -0.366, A -0.14, N 0.259, K -0.02

Variants of: B2
Experiment: as above
Settings: Homo sapiens

Abundance fitness: each site, then its substitutions
A45: Q 0.085, W -0.483, V -0.045, T -0.027, S -0.262, M -0.276, R -0.167, N -0.023, P -0.631
E51: I -0.459, S 0.615, F 0.332, Y 0.374, G 0.355, V 0.271, W -0.059, P -0.089, H 0.368, M 0.571, C 0.207, R 0.452, L -0.182, D -0.197, N 0.504, Q -0.198, K 0.891, A 0.495, T 0.462
I47: Y -0.137, M -0.25, A -0.582, S -0.653, E -0.776, K -0.858, L 0.027, F 0.216, D -0.761, V -0.312, G -0.539, T -0.61, Q -0.931, C -0.524, P -1.06, R -0.707, N -0.702
H46: N -0.394, E -0.527, K 0.186, W 0.216, Q 0.305, D -0.973, S 0.237, P -0.6, V 0.116, G 0.108, F -0.456, A 0.157, I -0.26, R -0.055, T 0.154
L50: K -0.342, V -0.616, E -0.636, D -0.423, P -0.353, R -0.459, A -0.572, W 0.023, N -0.617, G -0.317, Y -0.351, M -0.446, F 0.259, Q -0.377
K49: I -0.81, H -1.02, L -0.386, C -0.62, D -1.07, F -0.045, W -0.041, M -0.692, N -0.594, S -0.278, V -0.618, P -0.638, Q -0.679, G -0.458, T -0.701, Y -0.746
K48: C -0.311, S -0.648, M -0.65, V -0.846, G -0.479, F -0.093, R -0.288, L -0.802, Y 0.026, H -0.74, D -0.65, T -0.719, Q -0.457, W -0.31, P -0.643, N -0.675, E -0.762, I -0.351
